Measurements as given in paper PMC9328677 (2021).

B1: acidic domain of Homo sapiens APLF (APLF^AD, residues 450 to 511), wild type [Homo sapiens] / stoichiometric mixture of full-length Drosophila melanogaster H2A-H2B and H3-H4 (octamer-mix) [Drosophila melanogaster] (parent complex)
chain 1: DEDNDNVGQPNEYDLNDSFLDDEEEDYEPTDEDSDWEPGKEDEEKEDVEELLKEAKRFMKRK
chain 2: not shown
chain 3: not shown
chain 4: not shown
chain 5: not shown

Variants of: B1
Assay: ITC

Row | Kd | Variant
1 | 794 nM | chain 1 Y13A, chain 1 F19A, chain 1 Y27A, chain 1 W36A
2 | 671 nM | chain 1 Y13A, chain 1 F19A
3 | 317 nM | chain 1 Y27A, chain 1 W36A
